Measurements taken from PMC2872913.

Target: taxol-stabilized microtubules
Assay: co-sedimentation

Substance “p150^glued MBD-(His)6 after incubation with aurora A protein kinase and ATP (domain or fragment)” has a fold weaker affinity against MBD not phosphorylated by aurora A of 5 fold.
